Assay: label from the status in PepcDB records

Protein production, not failed:
MSRAKAAPVAGPEVAANRAGRQARIVAILSSAQVRSQNELAALLAAEGIEVTQATLSRDLEELGAVKLRGADGGTGIYVVPEDGSPVRGVSGGTDRMARLLGELLVSTDDSGNLAVLRTPPGAAHYLASAIDRAALPQVVGTIAGDDTILVVAREPTTGAQLAGMFENLR
MSRLEGKIAIVTGASSGIGRAAAALCTRGGKGRRYRPQRECTCGAYTRSPEGAVRRQRLPATWATKPCEALVELAVRRFGGLDTAFNNAGARCDGRDLVARRRLARDARYQSDAPSWRRNIRFRQLRHWAAVRSPTSSFVGHTAGFAGVAPYAASKAGDRTGAGAGGRTRRARHSRERAAAAAPTRLPISRTCRERRPRRAVSEGLHALKRIARPEEIAEAALYLAGRCLRDRRCAAGRRRRFGDEGV
MSRNPEVLWAQRSDKVYLTVALPDAKDISVKCEPQGLFSFSALGAQGERFEFSLELYGKIMTEYRKNVGLRNIIFSIQKEERSWWTRLLKSEEKPAPYIKVDWNKWCDEDEEVNSETASDDESAFVNQDSESSDDDGLLYLPDLEKARNK

Protein production, failed:
MSQTTTYAGSAGTAKTEIETSTIRAISWRLIPFLVLAYFFSYLDRVNLGFAALTMNAELKFTPLIFSWGAGIFFIGYFIFEVPSNLALEKFGASRWIARIMVTWGIISALMAMVSGVTSFYVLRFLLGVAEAGFFPGIILYLTYWYPAEYRARFLAAFAIAVPVSTVIGAPVSGLLLGLDGVMGLKGWQWLFIIEGIPSVLLGIVTWFYLTDRPEKADWLSAEQKAWLKAKLDSEIAAKQAVKHLSLGEALSSPKVIALSLIYFGFVGALYGMQFWLPQIVKAFGLTNAQTGFVTAIPYLFGTVAMILWARHSDATRERVMHVGAPLLLTAVALGVSSYLTDPTLTMVVLTVAAIGVFCCFGVFWTLPTAWLSGTAAAGGIALINSIGNLAGFGGPYLIGWVKEATGQTSTGLLVLAVLPLLAGILVFVGGHDSKHEFAGQGR
MSRDEVLTRMRRFGPLAVVAVLCAAAFASGLVEHISLEELRLRGTQLQAFAHENPLLCAAIYLAVYVGTVAISLPGALILSLTGGFLFGPIGGGLAAVTGATGGSTVTFLVFRTAFGEALPFKSSAFIARIAEGLKGDAFNYLLTLRLIPAFPLLAVNVAAGVMNVRVRTFLLASVLGMIPSSFVYAGIGAGLGHVFAKGGPVTVESLLSPRIYLPIIGMGVLAFLPPLWRHWRNGRDVASLDEK
MSRDPTYTINEHDLSFADGRFYVTFKADKSSETVRLNSSCLGNTIIKKLQVEDDNTMHDFVKPKVTTQQAFGLAQQVKELDLQLKDPKSDLWGKIKFNNKAMLVEYANKEMSSAIAQSAEQILLQVKSIDDERYSKFEQTLNGIKQTVKSESVESARTQLASMFDSRISGLDGKYSRLSQTIDSLSSRLDDGVGNYSTLSQKVSGIDLRVSNAANDVSRLSQTAQGLQSQITNANQNYSSLSQTVQGLQTTVRDNQSNATSRINQLSDLISTKVSKGDVETTIAQSYDKIAFAIRDKLPASKMSGSEIISAINLDRSGVKITGKNITLDGNSYISNAVIKDAHIANMDAGKINTGYLNANRIATEAITGEKIKMDYAFFNKLTANEGYFRTLFAKDIFATSVQSVTLSASKITGGVLAATNGASQWDLNNANMTFNRDATINFNSKNNALVRKDGTHTAFVHFSNATPKGYRGSALYASIGITSSGDGIDSASSGRFAGLRSFRYATGYNHTAAVDQTELYGDNVLIADDFNINRGFKFRPDKMEKVLDMNDLYAAVVALGRCWGHLANVGWNTAHSNFTSAVSRELNNYITKI
MSRFHWLWPWRSSTSLRVTTVLRLGADQPAIVAAARASQACTRSPRTTRDAMAMHTNGSVFAGWDGSVIQAQQLQHQLAQRVLLHDEVSATPQLLAGFDVGFEDDGQTTRAAAVLLDAHTLLPLETHVARAPTSMPYVPGLLSFRELPALLQALARLSRTPDLVFIDGQGIAHPRRLGIAAHFGVVTGLPCIGIAKQRLAGSFAEPGPERGDHTPILLGGAQIGWALRSKPRCNPLIVSPGHCVSMQGALGWTLRTLRSYRLPEPTRLADRLASRRGKMPALAADTPLLF
MSRGPLDPRAPLYKAVQIARRRAAEEGDSSWRVVAQAVEELARRVERLYELASRHGLSKPFWLSPRVLEVLRSVEDGDKGGAIERARSLSESLIPAGLAGEYSLATGTAARVLASIIFLASAAYIGVEGIQAPSTPAAVTTLALASFALAALLAASTHYSLYLLAVSTGASLAIATAYRPVVDSYSILMALYSAVLGFAAAAYSSYTRRKFYRMLRMLERGM
MSRIGKLLLGIVNLGPIGFMAVAVYRHGDLPASAVAVQVAVVAVLLGIYLRHLAGNDQLTRGLRRGWALVLLAGNWAVFPVYWHQFVWQDPRER
MSRINKFVLTVSLLIFIMISAVACGIYTQMVKERVYSLKQSVIDTAFAVANIAEYRRSVAIDLINTLNPTEEQLLVGLRTAYADSVSPSYLYDVGPYLISSDECIQVKEFEKNYCADIMQVVKYRHVKNTGFISFDGKTFVYYLYPVTHNRSLIFLLGLERFSLLSKSLAMDSENLMFSLFKNGKPVTGDEYNAKNAIFTVSEAMEHFAYLPTGLYVFAYKKDVYLRVCTLIIFFAALVAVISGASCLYLVRRVINRGIVEKEAIINNHFERVLDGGLFFSAADVKKLYSMYNSAFLDDLTKAMGRKSFDEDLKALPEKGGYLCLFDVDKFKNINDTFGHLLGDEVLMKVVKILKSQIPVDKGKVYRFGGDEFAVIYTGGTLEELLSILKEIVHFQVGSINLSTSIGVAHSNECPTVERLKMLADERLYKSKKNGRAQISWQ
MSRKTMNPTTVTQQLQKTYQAVGDGLLSEAFGLVRASVPSQQSHFLTRIDDLENVYRQLLSYFAQGVKDEKQAEMLLYLKRKLIGLAAEVHRESVVAQGTGLFYDRLRYRRSIGFESLVTLLEQAETSTVRKQFDELVRLIFDSLWTADALTDEEAAALSHAGEYIRLVAASALTMALQQQWHSKKLYFLLEELARPDITADYRARLLVGVVLTLRSYPHHTRLYYNEIALRLEAVNEHIPLEPTLEMLSIRFLFACETESITKHLQTELFSDIQKIAPDLRKFGMGDTESIQETGNPEWMEELEKSGLGDKIREFSELQLEGADVMHSSFMNLKGSSFFREMHNWFLPFDAAHSRIAPLLEENAVLKQLVEAIGPQLCNSDRYSFIVSMESLPAALRGSAMGAVGGELDALKEQIKQDVPVGETGKLDTAIKSYLQDLYRFYKVCERKNEFDDIFLSPIPPDLPVLDRYLYKRDTLLHTAEFLFRRKHYDRAAKLLADLAEGKESATDTTLHQKLGFSLQQQGLFAQALAAYSRAELIDTENEWLLKRMAHCYRQLCRPAEAAEIYERLFERNPHEATLLLQRGNALVEDSRYDEALQCFFRYEFSVDDASKARRPIAWCLFLTGQYERAGDYYRTILESDDLSTFTDRLNAGHTSLAMGQIPVAIDHYLAGLKLTPNGKDEFLAAYTADIPVLLKAGIEDAVIRLIPEVLRLHPN
MSRKYLIRITELERLLSEQAEALRQKDQQLSLVEETEAFLRSALARAEEKIEEEEREIEHLRAQIEKLRRMLFGTRSEKLQREVEQAEAQLKQREQESDRYSGREDDPQVPRQLRQSRHRRPLPAHLPREIHRLEPEESCCPECGSELDYLGEVSAEQLELVSSALKVIRTVRVKKACTKCDCIVEAPAPSRPIERGIAGSGLLARVLTGKYCEHLPLYRQSEIFARQGIELSRALLSNWVDACCQLMTLLNDTLYRYVMNTRKVHTDDTPVKVLAPGRKKAKTGRIWTYVRDDRNAGSSEPPAVWFAYSPDRQGKHPVQHLRPFRGILQADAFSGYDRLFSAEREGGALTEVACWAHARRKIHDVYISSKSATAEEALKRISELYAIEDEIRGLPESERLAVRQQRSKVLLTSLHEWMVEKNGTLSKKSRLGEACSYVLNQWDALCYYSDDGLAEADNNAAERALRAVCLGKKNFMFFGSDHGGERGALLYGLIGTCRLNGIDPEAYLRHILSVLPEWPSNRVDELLPWNVVLTNK
MSRNYKEDQTNEVEALDSIYCGDMEILATEPHHKFQIPIATEEYSSEEPEKGLACKLVFTFTATYPDGAPVVEIEEPENFEDMFETRLLEHLQKTIEENLGMEMIFSLVSSAQEWLNERWDEHKFHQEELREQKLREIEEEERKKFEGTRVTVESFLKWKLEFEESTGIAAKREKNNVSKKQTGRELFMCDNTLNDSDIKFLLEAGENIENVKIDETLFQDIGELDLDDDDDEDWVPGADDDDD
